{"source": "the nanobody polyreactivity screen of Harvey et al. (2022)", "data": [{"assay": "yeast display, Sf9 membrane polyspecificity reagent, FACS + sequencing; frameworks hold sequencing errors", "how_it_was_run": "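Polyreactivity labels are assigned by the sorting gate from which each nanobody was recovered. The gates were low and high (top ~1%), set on anti-HA fluorescence for expression and streptavidin fluorescence for reagent binding. Before sorting, galactose-induced (36–48 hours) yeast display cells were stained for 1 hour at 4 °C with 10% biotinylated, detergent-solubilized Sf9 membrane reagent.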", "values": [{"sequence": "QVHLVESGGGLVQAGGSLRLSCAASGSIFTQYAMGWYRQAPGKERELVARITGSGGRTYYADSVKGRFTISRDNAKNTVYLQMNSLKPEDTAVYYCNARLYTYGRHQGPDYNYWGQGTQVTVSS", "polyreactivity (PSR sort gate)": "high polyreactivity"}, {"sequence": "QVHLVESGGGLVQAGGSLRLSCAASGSIFTRYVMGWYRQAPGKERELVAAISGRGSSTYYADSVKGRFKISRDYAKNTVYLQMNSLKPEDTAVYYCAAEIVVFYSEGQRNTFYYWGQGTQVTVSS", "polyreactivity (PSR sort gate)": "high polyreactivity"}, {"sequence": "QVHLVESGGGLVQAGGSLRLSCAASGSIFVPYAMGWYRQAPRKERELVAAINHGGGRTYADSVKGRFTISRDNAKNSVYLQMNSLKPDDTAVYYCAADGADKIGYYSYYYWGQGTQVTVSS", "polyreactivity (PSR sort gate)": "low polyreactivity"}, {"sequence": "QVHLVESGGGLVQAGGSLRLSCAASGSIFYYNAMGWYRQAPGKERELVAAITSGDSTNYADSVKGRFTISRDNAKNTVYLQMNSLKPEDTAVYYCNTDGLVRNGPFYSWGQGTQVTVSS", "polyreactivity (PSR sort gate)": "low polyreactivity"}, {"sequence": "QVHLVESGGGLVQAGGSLRLSCAASGSIFYYNTMGWYRQAPGKERELVAAIRFDDGSTYYADSVKGRFTISRDNAKNTVYLQMNSLKPEDTAVYYCAADWIVVSEFGLDYHMDYWGQGTQVTVSS", "polyreactivity (PSR sort gate)": "low polyreactivity"}, {"sequence": "QVHLVESGGGLVQAGGSLRLSCAASGSIIKRNAMGWYRQAPGKERELVATISSGDGSTRYADSVKGRFTISRDNAKNTVYLQMNSLKPEDSAVYYCAAASAAGYDYWGQGTQVTVSS", "polyreactivity (PSR sort gate)": "low polyreactivity"}, {"sequence": "QVHLVESGGGLVQAGGSLRLSCAASGSILAGYAMGWYRQAPGKEWELVAAISSGGRTYYADSVKGRFTISRDNAKNTVYLQMNSLKPEDTAVYYSAAGKYDGSRRMYYWGQGTQVTVSS", "polyreactivity (PSR sort gate)": "high polyreactivity"}, {"sequence": "QVHLVESGGGLVQAGGSLRLSCAASGSISVANAMGWYRQAPGKERELVAAITDSGDDTYYADSVKGRFTISRDNAKNTVYLQMNSLKPEDTAVYYCAVEAWSVPPYDYWGQGTQVTVSS", "polyreactivity (PSR sort gate)": "low polyreactivity"}, {"sequence": "QVHLVESGGGLVQAGGSLRLSCAASGSIYVNTMGWYRQAPGKDRELVAGISRSTGRTYYADSVKGRFTISRDNAKNTVYLQMNSLKPEDTAVYYCNTVPWRRWGYDYWGQGTQVTVSS", "polyreactivity (PSR sort gate)": "high polyreactivity"}, {"sequence": "QVHLVESGGGLVQAGGSLRLSCAASGSTFDTYALGWYRQAPGKEWELVAAINTGGRTKYADSVKGRFTISRDNAKNTVYLQMNSLKPVDTGVYYCAARLSTTGVAYGYWGLGTQVTVSS", "polyreactivity (PSR sort gate)": "high polyreactivity"}, {"sequence": "QVHLVESGGGLVQAGGSLRLSCAASGSTFEQYAMGWYIQAPGKERELVAAISGSGTRTYYADSVKGRFTISRDNAKNTVYLQMNSLKPEDTAVYSCRTGSGEYDYWGQGTQVTVSS", "polyreactivity (PSR sort gate)": "high polyreactivity"}, {"sequence": "QVHLVESGGGLVQAGGSLRLSCAASGSTFGTYAMGWYRQAPGKERELVAAISNSGGSTYYADSVKGRFTISRDYAKNTVYLQMNSLKPEDTAVYYCNTDGLVRNGPFYSWGQGTQVTVSS", "polyreactivity (PSR sort gate)": "low polyreactivity"}, {"sequence": "QVHLVESGGGLVQAGGSLRLSCAASGSTFQLYAMGWYRQAPGKERELVAAITSSAGRTYYADSVKGRFTISRDNAKNTVYLQMNSLKPEDTAVYYCAKDGSFTFWGQGTQVTVSS", "polyreactivity (PSR sort gate)": "low polyreactivity"}, {"sequence": "QVHLVESGGGLVQAGGSLRLSCAASGSTFRSYVMGWSRQAPGKERELVAAISRGGTTYYADSVKGRFTISRDNAKNTVYLQMNSLKPEDTPVYYCAATRTTRFYTGSKMNYWGQGTQVTVSS", "polyreactivity (PSR sort gate)": "high polyreactivity"}, {"sequence": "QVHLVESGGGLVQAGGSLRLSCAASGSTFTRNVMGWYRQAPGKERELVASISRSGGRTYYADSVKGRFTISRDNAKNTVYLQMNSLKPEDTAVYYCAAKSFYYLDPYDYWGQGTQVTVSS", "polyreactivity (PSR sort gate)": "high polyreactivity"}, {"sequence": "QVHLVESGGGLVQAGGSLRLSCAASGSTFVNYTMGWYIQAPGKERELVAITIGAGRTYYADSVKGRFTISRDNAKNTVYLPMNSLKPEDTAVYYCAVRLYANSGRFDYWGQGTQVTVSS", "polyreactivity (PSR sort gate)": "low polyreactivity"}, {"sequence": "QVHLVESGGGLVQAGGSLRLSCAASGSTFWKYVMGWYILAPGKERELVAAITSRGGSTYADSVKGRFTISRDNAKNTVYLQMNSLKTEDTAVYYCAATKFWYYGYDYWGQGTQVTVSS", "polyreactivity (PSR sort gate)": "low polyreactivity"}, {"sequence": "QVHLVESGGGLVQAGGSLRLSCAASGSTFYAYTMGWYRQAPGKERELVAAISSRGGRTYYADSVKGRFTISRDNAKNTVYLQMNSLKPEDTAVYYCARTSWSGVSYDYWGQGTQVTVSS", "polyreactivity (PSR sort gate)": "high polyreactivity"}, {"sequence": "QVHLVESGGGLVQAGGSLRLSCAASGSTFYPYAMGWYRQAPGKEREVVAGISRSGGTTYYADSVKGRFTISRDNANNTVYLQMNSLKPEDTAVYYCAVQIPYVYWSYDYWGQGTQVTVSS", "polyreactivity (PSR sort gate)": "low polyreactivity"}, {"sequence": "QVHLVESGGGLVQAGGSLRLSCAASGSTFYYNAIGWYRQAPGKERELVARISRSGGSTYADSVKGRFTISRDKAKNTFYLQMNSLKPEDTAVYYCNADAYGTPEFTSYAVRYDYWGQGTQVTVSS", "polyreactivity (PSR sort gate)": "low polyreactivity"}, {"sequence": "QVHLVESGGGLVQAGGSLRLSCAASGSTFYYYVMGWYRQAPGKETELVAAINSGGSTYYADSVKGRFTISRDNAKNTVYLQMNSLKPEDTAVYYCAKSWSYWYQYYYSGQGTQVTVSS", "polyreactivity (PSR sort gate)": "low polyreactivity"}, {"sequence": "QVHLVESGGGLVQAGGSLRLSCAASGSTIDRYAMGWYRQAPGKERELVASISKRGGSTYYADSVKGRFTISRDNAKNTVYLQMNSLKPEDTAVYYCAAKWASQYDYWGQGTQVTVSS", "polyreactivity (PSR sort gate)": "high polyreactivity"}, {"sequence": "QVHLVESGGGLVQAGGSLRLSCAASGSTLGYYAMGWYRQAPGKERELVASIRWDTASTYYADSVKGRFTISRDNAKNTVYLQMNSLKPEDTAVYYCNAGRPRFYRCRWYYYGYGYWGQGTQVTVSS", "polyreactivity (PSR sort gate)": "high polyreactivity"}, {"sequence": "QVHLVESGGGLVQAGGSLRLSCAASGSTLSFYARGWYRQAPGKERELVAAISSSGGSTYYADSVKGRFTISRDNAKNTVYLQMNSLKPEDTAVYYCNAVRRNYGYDYWGQGTQVTVSS", "polyreactivity (PSR sort gate)": "high polyreactivity"}, {"sequence": "QVHLVESGGGLVQAGGSLRLSCAASGSTVYNAMGWYRQAPGKERELVAVITDSDGSTYYADSVKGRFTISRDNAKNTVYLQMNSLKPEDTAVYYCAVTAIALYYSSGYYWGQGTQVTVSS", "polyreactivity (PSR sort gate)": "low polyreactivity"}, {"sequence": "QVHLVESGGGLVQAGGSLRLSCAASGTTFGVYALGWYRQAPGKERELVAVITSRGGSTYYADSVKGRFTISRDNAKNTVYLQMNSLKPEDSAVYYCNTSTSRVPGNGEYWGQGTQVTVSS", "polyreactivity (PSR sort gate)": "high polyreactivity"}, {"sequence": "QVHLVESGGGLVQAGGSLRLSCAASVRIFQIYAMGWYRQAPGKERELVATISSGTRTYYADSVKGRFTISRDNAKNTVYLQMISLKPEDTAVYYCAKTYATRHAYWAGTRYEDDYWGQGTQVTVSS", "polyreactivity (PSR sort gate)": "high polyreactivity"}, {"sequence": "QVHLVESGGGLVQAGGSLRLSCAATGSIFRPYAMGWYRQAPGKERELVATITWRGGTTYYADSVKGRFTISRDNAKNTVILQMISLKPEDSAVYYCAAYVPFLTSAYDYWGHGTQVTVSS", "polyreactivity (PSR sort gate)": "low polyreactivity"}, {"sequence": "QVHLVESGGGLVQAGGSLRLSCAATGSTISRYAMGWYRPAPGKERELVAAISWGGNTYYADSVKGRFTISRDNAKNTVYLQMNSLKPEDTAVYYCNRYSKLYNTMDYWGQGTQVTVSS", "polyreactivity (PSR sort gate)": "high polyreactivity"}, {"sequence": "QVHLVESGGGLVQAGGSLRLSCASSGFTFRANAMGWYRPAPGKERELVAVITGSGRTYYAHSVKGRFTISRDNAKNSVYLKMNSLKPEDTAVYYCAARAAYRVSSTGYDSWGQGSQVTVSS", "polyreactivity (PSR sort gate)": "high polyreactivity"}, {"sequence": "QVHLVESGGGLVQAGGSLRLSCPASGSTIRRYAMGWYRQPHGKERELVAAIRQRGTYTYYADSVKGRFTISRDTAKNTVYLQMNSLKPEDTAVYYCSGVPSLWLFNSWGQGTQVTVSS", "polyreactivity (PSR sort gate)": "high polyreactivity"}, {"sequence": "QVHLVESGGGLVQAGGSLRLSCSASGRIFRVYAMGWYRQPPGKERELVAAIDQRGGRTYYADSVKGRFTISRDNAKNTVYLQMNSLKPEDTAVYYCNAEYYVSSLVESEYWGQGSQVTVSS", "polyreactivity (PSR sort gate)": "low polyreactivity"}, {"sequence": "QVHLVESGGGLVQAGGSLRLSCSAYGSIFAYYAMGWYRQAPGKERELVAAIRSSGGSTYYADSVKGRFTISRDNANNTVYLQMNSLKPEVTAVYYCNVASRRIGPYVYWGQGTQVTVSS", "polyreactivity (PSR sort gate)": "high polyreactivity"}, {"sequence": "QVHLVESGGGLVQAGGSLRLSFAADGSSFVRYAMGWYRQAPGKEREFVAAISRTGGSTYYADSVKGRFTLSRDNAKNTVYLQMNSLKQEVTAVFYCDARYIRGYDYWGQGTKVTVSS", "polyreactivity (PSR sort gate)": "high polyreactivity"}, {"sequence": "QVHLVESGGGLVQAGGSLRLSFAASGLIFFVYAMGWYRQAPGIERELVAGIRSSGGSTYYADSVKGRFTISRDNAKNTVYLQMNSLKPEDTAVYYCAARYRYGWAYRKGGDYWGQGTKVTVSS", "polyreactivity (PSR sort gate)": "high polyreactivity"}, {"sequence": "QVHLVESGGGLVQAGGSLRLSLAASGRIFGGYAMGWYRQAPGKERELVAGITNTGDTYYADSVKGRFTISRDNAKNNVYLQMNSLKPEDTAVYYCNAEGDKRRDRYDYWGQGTQVTVSS", "polyreactivity (PSR sort gate)": "low polyreactivity"}, {"sequence": "QVHLVESGGGLVQAGGSLRLSSAASGFICYQYAMGWYRQAPGKERELVAAISRRGGGTYYADSVKGRFTISRDNAKNTVYLEMNRLKPEDTAVYYCNTDRLGRITFGGYDYWGQGTQVTVSS", "polyreactivity (PSR sort gate)": "high polyreactivity"}, {"sequence": "QVHLVESGGGLVQAGGSLRLSSAASGITFYGNAMGWYRQAPGKERELVATISSGGSTNYADSVKGRFTISRDNAKNTVYLQMHSLKPEDTAVYYCNAAPDVNRDYEGSGDYWGQGTQVTVSS", "polyreactivity (PSR sort gate)": "low polyreactivity"}, {"sequence": "QVHLVESGGGLVQAGGSLRLSSAASGRIFSFNAMGWYREAPGKERELVAAISWSNGSTFYADSVKGRFTISRDNAKNTVYLQMNSLKPEETAVYYCATGFPHPKRNVNRRNYWGQGTQVTVSS", "polyreactivity (PSR sort gate)": "high polyreactivity"}, {"sequence": "QVHLVESGGGLVQAGGSLRLSSAASGRTLSRYAMGWYRQAPGKERELGASISWSGGRTYYADSVKGRFTISRDNAKNTVYLQMNSLKPEDTAVYYCAAVYVTAPFDYWGQGTQVTVSS", "polyreactivity (PSR sort gate)": "low polyreactivity"}, {"sequence": "QVHLVESGGGLVQAGGSLRLSSAASGSIFGANAMGWYRQAPGKERELVAAITSGSGTNYADSVKGRFTISRDNSKNTVYLQMNSLKPEDTAVYSCAARHPYPIYDYWGQGTQVTVSS", "polyreactivity (PSR sort gate)": "low polyreactivity"}]}]}
